Laboratory results from article PMC5085163.

Target: transducin-like enhancer of split 1 (TLE1) (human (endogenous in synovial sarcoma and control cell lines and tumor tissue)) (UniProt Q04724)
Test: proximity ligation; Duolink In Situ Red kit on cultured cells fixed with 3% formaldehyde and permeabilized with 0.1% Triton X-100; rabbit anti-SS18 and mouse anti-TLE1 primary antibodies overnight at 4°C; nuclear foci per nucleus; also done after HDAC inhibitors, SXT1596 and siRNA/shRNA against SS18-SSX

UniProt Q04724, sequence (Q04724 whole entry): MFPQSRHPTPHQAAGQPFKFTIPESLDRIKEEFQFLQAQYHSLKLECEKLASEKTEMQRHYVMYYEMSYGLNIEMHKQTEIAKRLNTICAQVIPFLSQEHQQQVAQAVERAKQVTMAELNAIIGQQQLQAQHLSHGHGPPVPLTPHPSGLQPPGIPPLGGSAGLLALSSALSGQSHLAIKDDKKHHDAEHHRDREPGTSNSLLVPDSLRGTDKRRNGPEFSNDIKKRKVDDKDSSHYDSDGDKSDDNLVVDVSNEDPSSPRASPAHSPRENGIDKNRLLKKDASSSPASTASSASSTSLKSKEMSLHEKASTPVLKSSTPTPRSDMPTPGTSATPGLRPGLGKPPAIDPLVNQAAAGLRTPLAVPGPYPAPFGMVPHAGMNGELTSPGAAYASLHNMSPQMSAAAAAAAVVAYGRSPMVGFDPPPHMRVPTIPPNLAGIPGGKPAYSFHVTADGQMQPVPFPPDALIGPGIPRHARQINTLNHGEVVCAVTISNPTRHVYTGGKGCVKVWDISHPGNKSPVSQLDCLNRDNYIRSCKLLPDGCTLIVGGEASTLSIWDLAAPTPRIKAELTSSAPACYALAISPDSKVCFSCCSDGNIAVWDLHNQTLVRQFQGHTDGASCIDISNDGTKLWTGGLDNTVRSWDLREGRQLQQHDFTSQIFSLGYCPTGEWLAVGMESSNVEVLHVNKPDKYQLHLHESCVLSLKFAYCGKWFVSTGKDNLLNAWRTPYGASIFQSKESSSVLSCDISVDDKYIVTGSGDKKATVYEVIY

fold PLA signal over control cell lines | Substance
> 10 fold | SS18-SSX1 fusion oncoprotein (natural protein)
> 10 fold | SS18-SSX2 fusion oncoprotein (natural protein)
